Results from patent CN111234012A.

Target: HBV病毒 (HepAD38细胞上清制备的HBV病毒液)
Assay: cell-based or functional assay

Substance: 乙肝免疫球蛋白 (HBIG) (antibody)
- HBV neutralisation on HepG2-NTCP cells, HBeAg in supernatant (IC50): 15 µg/mL
